The values that follow come from article PMC4490372, “Architecture of TFIIIC and its role in RNA polymerase III pre-initiation complex assembly” (Nature Communications, 2015).

Positions count from the first letter of the chain named.

Assay [1] addresses T1, τ138 (Tfc3), τB subunit of endogenous S. cerevisiae TFIIIC (S. cerevisiae, UniProt P34111 1-1160).
T1 construct: τ138 (Tfc3), subunit of S. cerevisiae TFIIIC, endogenous subunit in the purified complex; source: endogenous, purified from S. cerevisiae strain SC2342 as part of TFIIIC (TAP tag on τ60)
T1 sequence (looked up): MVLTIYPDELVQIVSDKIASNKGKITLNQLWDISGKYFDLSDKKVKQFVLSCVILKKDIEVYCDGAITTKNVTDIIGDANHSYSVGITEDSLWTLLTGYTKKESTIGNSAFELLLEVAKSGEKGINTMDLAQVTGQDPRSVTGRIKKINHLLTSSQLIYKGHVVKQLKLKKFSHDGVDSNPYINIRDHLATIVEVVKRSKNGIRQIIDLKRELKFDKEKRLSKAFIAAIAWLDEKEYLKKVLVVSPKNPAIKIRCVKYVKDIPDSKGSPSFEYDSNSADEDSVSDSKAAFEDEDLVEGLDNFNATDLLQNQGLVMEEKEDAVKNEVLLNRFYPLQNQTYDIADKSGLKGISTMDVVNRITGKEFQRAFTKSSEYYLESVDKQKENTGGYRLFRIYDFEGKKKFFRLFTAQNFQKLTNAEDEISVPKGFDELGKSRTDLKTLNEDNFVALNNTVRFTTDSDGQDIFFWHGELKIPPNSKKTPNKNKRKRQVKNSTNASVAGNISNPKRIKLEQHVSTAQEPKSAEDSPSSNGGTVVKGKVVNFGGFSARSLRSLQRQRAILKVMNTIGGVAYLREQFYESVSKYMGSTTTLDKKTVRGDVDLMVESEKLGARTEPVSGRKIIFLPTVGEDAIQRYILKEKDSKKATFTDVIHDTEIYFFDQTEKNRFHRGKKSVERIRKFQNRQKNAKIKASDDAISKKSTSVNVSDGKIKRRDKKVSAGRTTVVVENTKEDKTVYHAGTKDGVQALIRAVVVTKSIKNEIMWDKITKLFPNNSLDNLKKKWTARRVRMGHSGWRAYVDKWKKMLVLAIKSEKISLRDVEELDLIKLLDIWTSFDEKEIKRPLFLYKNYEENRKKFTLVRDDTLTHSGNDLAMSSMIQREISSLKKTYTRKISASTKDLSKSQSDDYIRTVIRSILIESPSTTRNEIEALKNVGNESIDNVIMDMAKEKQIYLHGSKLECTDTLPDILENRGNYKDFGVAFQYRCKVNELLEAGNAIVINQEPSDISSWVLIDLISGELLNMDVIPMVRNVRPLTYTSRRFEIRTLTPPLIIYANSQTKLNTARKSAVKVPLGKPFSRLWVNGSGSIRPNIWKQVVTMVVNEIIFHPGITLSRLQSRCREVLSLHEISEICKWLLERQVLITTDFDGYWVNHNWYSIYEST
The experiment in a line: cross-linking; XL-MS: purified endogenous TFIIIC (30 μg, 1 μg/μl) cross-linked with H12/D12 DSS to 2 mM, 40 min at 37 °C; ld-score >25. Conditions: both partners purified.

The target in assay [2] is T2, τ131 (123–566) E472K (S. cerevisiae, UniProt P33339 123-566, E472K).
T2 sequence: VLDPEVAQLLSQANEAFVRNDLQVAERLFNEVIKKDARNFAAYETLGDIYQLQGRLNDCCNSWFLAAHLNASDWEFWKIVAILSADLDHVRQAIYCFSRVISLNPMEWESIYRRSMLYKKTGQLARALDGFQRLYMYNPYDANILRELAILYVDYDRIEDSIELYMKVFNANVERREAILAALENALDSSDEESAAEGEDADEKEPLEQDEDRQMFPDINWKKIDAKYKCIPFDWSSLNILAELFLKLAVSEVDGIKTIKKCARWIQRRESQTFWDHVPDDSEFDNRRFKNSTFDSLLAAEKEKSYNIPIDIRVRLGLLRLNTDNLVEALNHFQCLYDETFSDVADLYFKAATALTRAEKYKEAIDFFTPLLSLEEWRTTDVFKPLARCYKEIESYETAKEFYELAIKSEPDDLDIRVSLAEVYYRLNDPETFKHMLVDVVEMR
The experiment in a line: ITC.

Assay [3] addresses T3, τ131 (123–566) E498K (S. cerevisiae, UniProt P33339 123-566, E498K).
T3 sequence: T2 sequence with K350E, E376K
The experiment in a line: ITC. (In general: ITC needs no label: the signal is the heat of the interaction.)

Assay [4] addresses T4, τ131 (123–566) E497K (S. cerevisiae, UniProt P33339 123-566, E497K).
T4 sequence: T2 sequence with K350E, E375K
The experiment in a line: ITC.

Assay [5] addresses T5, τ131 (123–566) E472K (S. cerevisiae, UniProt P33339 123-566, E472K).
T5 construct: source: E. coli, purified by the same method as the wild type; not shown: His6, N-terminal, cleaved
T5 sequence (looked up): T2 sequence
As to the kind of experiment: ITC; MicroCal ITC200; 15 μM τ138 in the cell, 150 μM τ131 in the syringe; 20 mM Tris pH 7.5, 150 mM NaCl, 2 mM β-mercaptoethanol; 25 °C. Conditions: both partners purified.

Assay [6] has as its target T6, τ131 (123–566) E497K (S. cerevisiae, UniProt P33339 123-566, E497K).
T6 construct: source: E. coli, purified by the same method as the wild type; not shown: His6, N-terminal, cleaved
T6 sequence (looked up): T2 sequence with K350E, E375K
The description is as above. The note with it: both partners purified.

Assay [7] has as its target T7, τ131 (123–566) E498K (S. cerevisiae, UniProt P33339 123-566, E498K).
T7 construct: source: E. coli, purified by the same method as the wild type; not shown: His6, N-terminal, cleaved
T7 sequence (looked up): T2 sequence with K350E, E376K
Described as above. The note with it: both partners purified.

Assay [8] addresses T8, τ131 (123–566), TPR array, wild type (S. cerevisiae, UniProt P33339 123-566).
T8 construct: also called τ131 TPR array; source: E. coli BL21 Star (DE3) pRARE, purified (Ni-NTA, TEV cleavage, S200 SEC); not shown: His6, N-terminal, cleaved
T8 sequence (looked up): T2 sequence with K350E
Described as above. Conditions: both partners purified.

B1: τ131 (Tfc4), τA subunit of endogenous S. cerevisiae TFIIIC (natural protein, UniProt P33339 1-1025, looked up)
chain: MAAGKLKKEQQNQSAERESADTGKVNDEDEEHLYGNIDDYKHLIQDEEYDDEDVPHDLQLSEDEYNSERDSSLLAEFSDYGEISEDDEEDFMNAIREASNFKVKKKKKNDKGKSYGRQRKERVLDPEVAQLLSQANEAFVRNDLQVAERLFNEVIKKDARNFAAYETLGDIYQLQGRLNDCCNSWFLAAHLNASDWEFWKIVAILSADLDHVRQAIYCFSRVISLNPMEWESIYRRSMLYKKTGQLARALDGFQRLYMYNPYDANILRELAILYVDYDRIEDSIELYMKVFNANVERREAILAALENALDSSDEESAAEGEDADEKEPLEQDEDRQMFPDINWKKIDAKYKCIPFDWSSLNILAELFLKLAVSEVDGIKTIKKCARWIQRRESQTFWDHVPDDSEFDNRRFKNSTFDSLLAAEKEKSYNIPIDIRVRLGLLRLNTDNLVEALNHFQCLYDETFSDVADLYFEAATALTRAEKYKEAIDFFTPLLSLEEWRTTDVFKPLARCYKEIESYETAKEFYELAIKSEPDDLDIRVSLAEVYYRLNDPETFKHMLVDVVEMRKHQVDETLHRISNEKSSNDTSDISSKPLLEDSKFRTFRKKKRTPYDAERERIERERRITAKVVDKYEKMKKFELNSGLNEAKQASIWINTVSELVDIFSSVKNFFMKSRSRKFVGILRRTKKFNTELDFQIERLSKLAEGDSVFEGPLMEERVTLTSATELRGLSYEQWFELFMELSLVIAKYQSVEDGLSVVETAQEVNVFFQDPERVKMMKFVKLAIVLQMDDEEELAENLRGLLNQFQFNRKVLQVFMYSLCRGPSSLNILSSTIQQKFFLRQLKAFDSCRYNTEVNGQASITNKEVYNPNKKSSPYLYYIYAVLLYSSRGFLSALQYLTRLEEDIPDDPMVNLLMGLSHIHRAMQRLTAQRHFQIFHGLRYLYRYHKIRKSLYTDLEKQEADYNLGRAFHLIGLVSIAIEYYNRVLENYDDGKLKKHAAYNSIIIYQQSGNVELADHLMEKYLSI
notes: τ131 (Tfc4), subunit of S. cerevisiae TFIIIC, endogenous subunit in the purified complex; Endogenous subunit; source: endogenous, purified from S. cerevisiae strain SC2342 as part of TFIIIC (TAP tag on τ60)
Turning to B1, the binding result in assay [1] is recorded as “binds”.

B2: τ91 (Tfc6), τB subunit of endogenous S. cerevisiae TFIIIC (natural protein, UniProt Q06339 1-672, looked up)
chain: MAVIPAKKRGRPRKSVVAEVPYDSLASPVSENSGSKRPRRNASKKAVANFAQLVHAGRDDVINTTQVNNVDDTDDDDFVLNDEGDGEESDNVEIEFENELESTKNEVADLNSSGSGASVRPSGRRNTVQKLRLKKNSTKNMKSSSPGSSLGQKGRPIRLLKDLSSARDKIERIYGLNKEKLLLLAKVKEGFETSVFDFPFKNIQPDSPYFVCLDPPCKKESAYNKVIGDKNRTVYHEINKTEFENMIKLRTKRLKLLIGEVDAEVSTGDKIEFPVLANGKRRGFIYNVGGLVTDIAWLNIEENTDIGKDIQYLAVAVSQYMDEPLNEHLEMFDKEKHSSCIQIFKMNTSTLHCVKVQTIVHSFGEVWDLKWHEGCHAPHLVGCLSFVSQEGTINFLEIIDNATDVHVFKMCEKPSLTLSLADSLITTFDFLSPTTVVCGFKNGFVAEFDLTDPEVPSFYDQVHDSYILSVSTAYSDFEDTVVSTVAVDGYFYIFNPKDIATTKTTVSRFRGSNLVPVVYCPQIYSYIYSDGASSLRAVPSRAAFAVHPLVSRETTITAIGVSRLHPMVLAGSADGSLIITNAARRLLHGIKNSSATQKSLRLWKWDYSIKDDKYRIDSSYEVYPLTVNDVSKAKIDAHGINITCTKWNETSAGGKCYAFSNSAGLLTLEYLS
notes: τ91 (Tfc6), subunit of S. cerevisiae TFIIIC, endogenous subunit in the purified complex; source: endogenous, purified from S. cerevisiae strain SC2342 as part of TFIIIC (TAP tag on τ60)
As for B2, in assay [1], the binding result is “binds”.

B3: τ138 (641–693), τ131-Interaction Region (τIR) (domain or fragment, S. cerevisiae, UniProt P34111 641-693, looked up)
chain: SKKATFTDVIHDTEIYFFDQTEKNRFHRGKKSVERIRKFQNRQKNAKIKASDD
notes: The cloning and tag of this construct as used for ITC and SEC are not described; also called τ138 (τIR); unstructured region of τ138; source: purified; expression of this construct not described
With B3, the Kd (usually the concentration at which binding is half-saturated) with τ131 (123–566) E472K [2] was 833 nM; in the assay with τ131 (123–566) E498K [3], 833 nM; in the assay with τ131 (123–566) E497K [4] it was 89 nM; in assay [8], about 80 nM. Also, the binding result in the assay with τ131 (123–566) E472K [5], in the assay with τ131 (123–566) E497K [6] and with τ131 (123–566) E498K [7] was “binds” throughout.

B4: τ138 construct with residues 682–693 removed (domain or fragment)
chain: SARSLRSLQRQRAILKVMNTIGGVAYLREQFYESVSKYMGSTTTLDKKTVRGDVDLMVESEKLGARTEPVSGRKIIFLPTVGEDAIQRYILKEKDSKKATFTDVIHDTEIYFFDQTEKNRFHRGKKSVERIRKFQN
On to B4, for which the Kd in assay [8] is about 2600 nM.
